Paper PMC3904923 (2014)

Legend:
[1] = biological target: T1, dansylated calmodulin (rat, UniProt P0DP30 1-149, dansyl group covalently bound to CaM (position not given)); assay: absence of Ca2+
[2] = biological target: T1, dansylated calmodulin; assay: 3.9 uM Ca2+ (poor 1:1 fit, Bmax constrained)

Kd [1]: 4.8 nM
Kd [2]: 21.4 nM
B1: Kv7.2 CaM binding domain (residues 310–548), Q2AB WT (domain or fragment)
chain: not shown
